Measurements reported in patent publication US20210188951A1 (Merck Sharp & Dohme, published 2021).

B1: D25 antibody (antibody, V domains shown)
VH: QVQLVQSGAEVKKPGSSVMVSCQASGGPLRNYIINWLRQAPGQGPEWMGGIIPVLGTVHYAPKFQGRVTITADESTDTAYIHLISLRSEDTAMYYCATETALVVSTTYLPHYFDNWGQGTLVTVSS
VL: DIQMTQSPSSLSAAVGDRVTITCQASQDIVNYLNWYQQKPGKAPKLLIYVASNLETGVPSRFSGSGSGTDFSLTISSLQPEDVATYYCQQYDNLPLTFGGGTKVEIKR
B2: palivizumab (SYNAGIS) (antibody, V domains shown)
VH: QVTLRESGPALVKPTQTLTLTCTFSGFSLSTSGMSVGWIRQPPGKALEWLADIWWDDKKDYNPSLKSRLTISKDTSKNQVVLKVTNMDPADTATYYCARSMITNWYFDVWGAGTTVTVSS
VL: DIQMTQSPSTLSASVGDRVTITCKCQLSVGYMHWYQQKPGKAPKLLIYDTSKLASGVPSRFSGSGSGTEFTLTISSLQPDDFATYYCFQGSGYPFTFGGGTKLEIK
B3: RB1+YTE (human IgG1 with M252Y/S254T/T256E in the Fc) (antibody, V domains shown)
VH: EVQLVESGGGLVRPGRSLRLSCTVSGFSFDDSAMSWVRQAPGKGLEWISFIKSKTYGGTKEYAASVKGRFTISRDDSKNIAYLQMNSLKTEDTAVYYCTRGAPYGGNSDYYYGLDVWGQGTTVTVSS
VL: DIQMTQSPSSLSASVGDRVTITCRTSQDVRGALAWYQQKPGKAPKLLIFDASSLETGVPSRFSGSGSGTVFTLTISSLQPEDFAAYYCQQFLDFPFTFGQGTRLEIKR
B4: RB1 (recombinant human IgG1, CHO-3E7 expressed) (antibody, V domains shown)
VH: EVQLVESGGGLVRPGRSLRLSCTVSGFSFDDSAMSWVRQAPGKGLEWISFIKSKTYGGTKEYAASVKGRFTISRDDSKNIAYLQMNSLKTEDTAVYYCTRGAPYGGNSDYYYGLDVWGQGTTVTVSS
VL: DIQMTQSPSSLSASVGDRVTITCRTSQDVRGALAWYQQKPGKAPKLLIFDASSLETGVPSRFSGSGSGTVFTLTISSLQPEDFAAYYCQQFLDFPFTFGQGTRLEIKR
notes: Variable domains converted to human IgG1 and expressed in CHO-3E7 cells; also called RB1 MAb; anti-human RSV F protein antibody RB1

Experiments:
[1] = molecular target: human RSV pre-fusion F protein (human respiratory syncytial virus (hRSV), UniProt P03420 26-513); assay: ELISA on coated pre-F
[2] = molecular target: human RSV post-fusion F protein LZF21 (human respiratory syncytial virus (hRSV), UniProt P03420 26-524); assay: ELISA on coated post-F
[3] = molecular target: T1, human RSV A F protein (ELISA of Example 6; pre- or post-fusion form not stated) (human RSV A, UniProt P03420 26-513); assay: ELISA, RSV A F protein on the plate, antibody titrated, OD450
[4] = molecular target: T2, human RSV post-fusion F protein LZF21 (human respiratory syncytial virus (hRSV), UniProt P03420 26-524); assay: SPR (Biacore)
T2 construct: extracellular domain; Trimeric; also called LZF21-biotin

[5] = molecular target: T3, human RSV pre-fusion F protein (human respiratory syncytial virus (hRSV), UniProt P03420 26-513); assay: SPR (Biacore)
T3 construct: also called hRSV pre-F

[6] = molecular target: T1, human RSV A F protein (ELISA of Example …); assay: ELISA on coated F protein; lower end of the range
[7] = molecular target: T2, human RSV post-fusion F protein LZF21; assay: ELISA on coated post-F
[8] = molecular target: T2, human RSV post-fusion F protein LZF21; assay: SPR, Biacore T200, 1:1 Langmuir fit
Text: (§1) Background subtraction binding sensorgrams were used for analyzing the rate constant of association (kₐ) and dissociation (kd), and the equilibrium dissociation constant KD. The resulting data sets were fitted with a 1:1 Langmuir Binding Model using the Biacore T200 evaluation software (version 2.0).

[9] = molecular target: T3, human RSV pre-fusion F protein; assay: SPR, Biacore T200, 1:1 Langmuir fit
Text: as §1

[10] = molecular target: T4, RSV-F protein I432A mutant, expressed in human cells (UniProt P03420 26-574); assay: shotgun mutagenesis alanine scan, antibody binding to F mutant expressed in human cells
T4 construct: whole, on cells

[11] = molecular target: T5, RSV-F protein R429A mutant, expressed in human cells (UniProt P03420 26-574); assay: as above
T5 construct: whole, on cells

[12] = molecular target: T3, human RSV pre-fusion F protein; assay: ELISA on coated pre-F

Binder | EC50 [1] [ng/mL] | Kd [4] [nM] | koff [4] [s⁻¹] | kon [4] [M⁻¹ s⁻¹] | Kd [5] [nM] | koff [5] [s⁻¹] | kon [5] [M⁻¹ s⁻¹] | also measured
B1 | 8.94 |  |  |  |  |  |  | 
B2 | 17.4 |  |  |  |  |  |  | EC50 [2]: 10.5 ng/mL
B3 |  | 0.48 | 0.0007 | 1.4e+06 | 0.071 | 0.00023 | 3.2e+06 | EC50 [3]: 2.24 ng/mL; EC50 [6]: 1.97 to 2.46 ng/mL
B4 |  | 0.41 | 0.0009 | 2.2e+06 | 0.031 | 0.00014 | 4.4e+06 | EC50 [7]: 14.1 ng/mL; Kd [8]: 0.41 nM; koff [8]: 0.0009 s⁻¹; kon [8]: 2.2e+06 M⁻¹ s⁻¹; Kd [9]: 0.031 nM; koff [9]: 0.00014 s⁻¹; kon [9]: 4.4e+06 M⁻¹ s⁻¹; Binding Reactivity (% WT) [10]: 36.7 % WT; Binding Reactivity (% WT) [11]: 33.1 % WT; EC50 [12]: 7.05 ng/mL
